Source: patent publication US20060269997A1 (Genentech, published 2006)
Where a chain is given by its changes, count along the chain named.

B1: LK-VRB-5s (ligand, human, UniProt P15692-4 27-135, looked up)
chain: APMAEGGGQNHHEVVKFMDVYQRSYCHPIETLVDIFQEYPDEIEYIFKPSCVPLMRCGGCCNSEGRECVPTEESNITMQIMRIKPHQGQHIGEMSFLQHNKCECRPKKD
B2: LK-VRB-4s (ligand, human, UniProt P15692-4 27-135, looked up)
chain: B1 chain with F17I, M18E, Y21F, Q22E, Y25I, S63D, R66L
B3: LK-VRB-3s (ligand, human, UniProt P15692-4 27-135, looked up)
chain: B1 chain with F17I, M18E, Y21F, Q22K, Y25S, S63D, R66L
B4: LK-VRB-6s (ligand, human, UniProt P15692-4 27-135, looked up)
chain: B1 chain with G65A, R66T
B5: LK-VRB-7s* (ligand, human, UniProt P15692-4 27-135, looked up)
chain: B1 chain with M18E, G65M
B6: LK-VRB-8s* (ligand)
chain: B1 chain with Y21L, G65M
B7: LK-VRB-2f (ligand, human, UniProt P15692-4 27-191, looked up)
chain: APMAEGGGQNHHEVVKFMDVYQRSYCHPIETLVDIFQEYPDEIEYIFKPSCVPLMRCGGCCNSEMRECVPTEESNITMQIMRIKPHQGQHIGEMSFLQHNKCECRPKKDRARQENPCGPCSERRKHLFVQDPQTCKCSCKNTDSRCKARQLELNERTCRCDKPRR
notes: also called KDR-selective VEGF variant; KDR-sel
B8: LK-VRB-9s (ligand, human, UniProt P15692-4 27-135, looked up)
chain: B1 chain with Q22R, G65M
B9: Tyr 21** (ligand)
chain: B1 chain with Y21A, S63D, R66L
B10: Pro 106 (ligand)
chain: B1 chain with S63D, R66L, P106A
B11: Tyr 25** (ligand)
chain: B1 chain with Y25A, S63D, R66L

These binders were tested against gD-KDR receptor on CHO cells (UniProt P35968 20-1356) (assay: cell-based or functional assay).

B1 and B2 are the same in “Phosphorylation-Inducing Activity (KIRA), midpoint concentration” value: 1 nM for the first, 1 nM for the second.

Compared with B3, B4 is 2-fold lower in “Phosphorylation-Inducing Activity (KIRA), midpoint concentration” value: 2 nM for the first, 1 nM for the second.

B1 and B2 are the same in “Phosphorylation-Inducing Activity (KIRA), ratio to native VEGF (8-109)” value: 0.5 fold for the first, 0.5 fold for the second.

First: B3
Second: B4
The “Phosphorylation-Inducing Activity (KIRA), ratio to native VEGF (8-109)” value of the first is higher: 1 fold for the first, 0.5 fold for the second.

What follows are binders tested against KDR on human umbilical vein endothelial cells (HUVEC) (human, UniProt P35968 20-1356) (assay: cell-based or functional assay).
KDR on human umbilical vein endothelial cells (HUVEC), sequence (P35968 20-1356): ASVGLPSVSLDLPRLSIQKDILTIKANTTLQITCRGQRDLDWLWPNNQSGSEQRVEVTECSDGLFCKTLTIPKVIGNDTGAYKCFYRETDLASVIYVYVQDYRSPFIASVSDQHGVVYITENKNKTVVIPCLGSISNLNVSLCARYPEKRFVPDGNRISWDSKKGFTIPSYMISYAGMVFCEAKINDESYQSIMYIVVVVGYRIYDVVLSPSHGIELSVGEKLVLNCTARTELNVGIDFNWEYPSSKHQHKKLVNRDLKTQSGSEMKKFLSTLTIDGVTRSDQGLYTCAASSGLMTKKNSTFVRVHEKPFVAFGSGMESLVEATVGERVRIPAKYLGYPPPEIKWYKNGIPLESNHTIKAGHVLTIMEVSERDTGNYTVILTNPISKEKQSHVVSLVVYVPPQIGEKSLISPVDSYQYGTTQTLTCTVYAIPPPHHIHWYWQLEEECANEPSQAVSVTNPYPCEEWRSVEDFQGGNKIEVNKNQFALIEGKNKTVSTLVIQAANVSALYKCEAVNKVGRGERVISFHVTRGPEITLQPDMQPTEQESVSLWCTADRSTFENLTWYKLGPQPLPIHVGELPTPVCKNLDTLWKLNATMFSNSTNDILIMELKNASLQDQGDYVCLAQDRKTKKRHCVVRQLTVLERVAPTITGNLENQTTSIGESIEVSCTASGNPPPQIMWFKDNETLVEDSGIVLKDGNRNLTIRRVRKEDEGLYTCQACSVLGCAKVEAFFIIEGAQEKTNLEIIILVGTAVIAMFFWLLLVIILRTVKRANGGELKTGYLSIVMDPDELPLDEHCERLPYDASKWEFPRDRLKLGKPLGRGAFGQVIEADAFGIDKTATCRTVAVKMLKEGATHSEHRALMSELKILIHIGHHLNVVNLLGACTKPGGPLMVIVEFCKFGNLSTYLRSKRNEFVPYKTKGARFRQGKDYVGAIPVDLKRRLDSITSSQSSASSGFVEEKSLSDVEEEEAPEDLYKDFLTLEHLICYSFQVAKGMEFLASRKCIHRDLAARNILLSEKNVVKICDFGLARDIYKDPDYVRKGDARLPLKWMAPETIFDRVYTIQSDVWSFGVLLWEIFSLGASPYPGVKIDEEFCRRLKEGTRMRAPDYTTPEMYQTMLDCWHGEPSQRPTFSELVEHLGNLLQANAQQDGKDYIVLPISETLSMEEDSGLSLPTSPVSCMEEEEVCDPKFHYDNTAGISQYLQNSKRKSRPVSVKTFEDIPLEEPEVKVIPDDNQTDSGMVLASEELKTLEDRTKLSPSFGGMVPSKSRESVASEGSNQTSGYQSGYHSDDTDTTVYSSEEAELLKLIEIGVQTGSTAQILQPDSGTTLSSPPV

B5 and B6 are the same in “Endothelial Cell Proliferation Activity (HUVEC), ratio to native VEGF (8-109)” value: 1 fold for the first, 1 fold for the second.

B5 and B6 are the same in “Endothelial Cell Proliferation Activity (HUVEC, 3H-thymidine), concentration” value: 0.5 nM for the first, 0.5 nM for the second.

With B7 the “Endothelial Cell Proliferation Activity (HUVEC, 3H-thymidine), concentration” value was 0.05 nM.

Each binder was assayed against T1, Flt-IgG (a chimeric Flt-human Fc molecule) (UniProt P17948 27-758, limits assumed) (assay: competition ELISA vs biotinylated native VEGF, Flt-IgG captured by anti-Fc).
T1 construct: Only described as a chimeric Flt-human Fc molecule; not shown: human Fc
T1 sequence (P17948 27-758 limits assumed, change not shown): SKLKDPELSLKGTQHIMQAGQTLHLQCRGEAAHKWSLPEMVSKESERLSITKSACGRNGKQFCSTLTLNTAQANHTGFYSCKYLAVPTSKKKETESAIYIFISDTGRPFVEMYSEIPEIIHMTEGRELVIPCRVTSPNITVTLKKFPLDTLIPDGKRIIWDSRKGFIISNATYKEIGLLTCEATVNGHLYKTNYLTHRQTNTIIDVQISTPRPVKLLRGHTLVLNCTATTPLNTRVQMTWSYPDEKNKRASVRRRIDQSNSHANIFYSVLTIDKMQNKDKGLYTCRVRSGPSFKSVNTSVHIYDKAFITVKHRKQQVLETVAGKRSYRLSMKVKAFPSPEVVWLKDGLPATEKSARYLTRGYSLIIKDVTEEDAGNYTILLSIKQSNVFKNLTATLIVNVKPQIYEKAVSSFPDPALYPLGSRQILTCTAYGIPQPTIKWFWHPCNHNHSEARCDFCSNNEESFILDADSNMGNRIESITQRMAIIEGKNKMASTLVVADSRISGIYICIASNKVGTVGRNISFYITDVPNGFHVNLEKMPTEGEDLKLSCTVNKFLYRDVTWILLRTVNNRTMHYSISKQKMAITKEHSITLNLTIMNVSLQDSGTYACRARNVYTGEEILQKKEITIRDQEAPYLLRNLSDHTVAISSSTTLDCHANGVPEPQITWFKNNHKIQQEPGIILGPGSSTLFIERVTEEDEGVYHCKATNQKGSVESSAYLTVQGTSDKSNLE
Description: (§1) Receptor binding assays were performed in 96-well immunoplates (Maxisorp, Nunc-Immunoplate, Nalge Nunc International, Rochester, N.Y.). Each well was coated with 100 μl of a solution containing 2 μg/ml of rabbit F(ab′)2 to human IgG Fc (Jackson ImmunoResearch, West Grove, Pa.) in 50 mM carbonate buffer at pH 9.6 and incubated at 4° C. overnight. The supernatant was then discarded, the wells were washed three times in washing buffer (0.05% Tween 20 in PBS), and the plate was blocked (150 μl per well) with block buffer (0.5% BSA, 0.01% thimerosal in PBS) at room temperature for one hour. The supernatant was discarded, and the wells were washed.
The wells were filled with 100 μl of a solution containing Flt-IgG (a chimeric Flt-human Fc molecule) at 50 ng/ml in assay buffer (0.5% BSA, 0.05% Tween 20 in PBS). The wells were incubated at room temperature for 1 hour and then washed three times in wash buffer (0.05% Tween 20 in PBS).
(§2) Aliquots of the mixture (100 μl) were added to the precoated microtiter wells and the plate was incubated for 2 hours at room temperature. […] The wells were then incubated with 3,3′, 5,5′-tetramethyl benzidine (0.2 g/liter, Kirkegaard & Perry Laboratories, Gaithersburg, Md.) for about 10 minutes at room temperature. Absorbance was read at 450 nm on a Vmax plate reader (Molecular Devices, Menlo Park, Calif.).

Compared with B1, B2 is 2.3-fold lower in IC50: 233 nM for the first, 100 nM for the second. The second is the more potent here.

Compared with B3, B4 is 42-fold lower in IC50: 170 nM for the first, 4 nM for the second.

B7 was tested, and the IC50 was 19 nM.

Compared with B1, B2 is lower in “Relative Binding Affinity (ratio to native VEGF (8-109))” value: 550 fold for the first, 200 fold for the second.

Compared with B3, B4 is lower in “Relative Binding Affinity (ratio to native VEGF (8-109))” value: 400 fold for the first, 10 fold for the second.

In the case of B8, the “Relative Binding Affinity (ratio to native VEGF (8-109))” value is reported as 300 fold.

What follows are binders tested against T2, KDR (1-3) monomer (UniProt P35968 20-327, limits assumed, biotin-labeled in the ELISA of Example 8) (assay: competition ELISA vs biotinylated VEGF (8-109), soluble KDR (1-3) captured by MAKD5).
T2 construct: domain: domains 1 to 3; Genentech reagent; also called domains 1 to 3 of KDR
T2 sequence (P35968 20-327 limits assumed): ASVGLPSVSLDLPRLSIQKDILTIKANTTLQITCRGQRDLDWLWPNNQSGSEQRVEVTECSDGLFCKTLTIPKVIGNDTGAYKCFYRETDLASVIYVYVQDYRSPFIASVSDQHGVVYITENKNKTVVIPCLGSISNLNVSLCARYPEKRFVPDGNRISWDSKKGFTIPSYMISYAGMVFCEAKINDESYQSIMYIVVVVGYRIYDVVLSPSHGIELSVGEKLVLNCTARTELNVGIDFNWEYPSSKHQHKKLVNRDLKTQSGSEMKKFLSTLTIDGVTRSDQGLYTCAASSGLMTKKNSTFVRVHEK
Description: as §1, with “containing 8” for “containing 2”, “of a monoclonal antibody” for “of rabbit F(ab′)2”, “to KDR known as MAKD5 (Genentech, South San Francisco, Calif.)” for “to human IgG Fc (Jackson ImmunoResearch, West Grove, Pa.)”, “was” for “was then”
as §2, with “of this” for “of the”, “for 1 hour” for “for 2 hours”, “(0.2 gram/liter;” for “(0.2 g/liter,”
Titration curves were fit with a four-parameter nonlinear regression curve-fitting program (KaleidaGraph, Synergy Software, Reading, Pa.).

B1 and B2 are the same in IC50: 1 nM for the first, 1 nM for the second.

B3 and B5 are the same in IC50: 1 nM for the first, 1 nM for the second.

B4 and B8 are the same in IC50: 0.5 nM for the first, 0.5 nM for the second.

B6 was tested, and the IC50 was 0.5 nM.

B1 and B2 are the same in “Relative Binding Affinity (ratio to native VEGF (8-109))” value: 1 fold for the first, 1 fold for the second.

B3 and B5 are the same in “Relative Binding Affinity (ratio to native VEGF (8-109))” value: 1 fold for the first, 1 fold for the second.

B4 and B8 are the same in “Relative Binding Affinity (ratio to native VEGF (8-109))” value: 0.5 fold for the first, 0.5 fold for the second.

In the case of B6, the “Relative Binding Affinity (ratio to native VEGF (8-109))” value is reported as 0.5 fold.

What follows are binders tested against T2, KDR (1-3) monomer (assay: competition ELISA: plate coated with VEGF (8-109), 100 pM biotin-labeled KDR(1-3), serial dilutions of the competing VEGF (Example 8)).
Description: (§3) After 1 hour, the plates were washed, and the bound protein stained with streptavidin horseradish peroxidase conjugate (Pharmacia) and assayed. Affinities were estimated as IC₅₀ values: the concentration of KDR(1-3) or Flt(1-3) that blocked 50% of protein binding.

First: B9
Second: B10
The “fold reduction in binding (IC50 variant / IC50 VEGF(1-109))” value of the first is higher: 19 fold for the first, 1 fold for the second.

With B11 the “fold reduction in binding (IC50 variant / IC50 VEGF(1-109))” value was 6 fold.

These binders were tested against T3, Flt-1 (1-3) monomer (UniProt P17948 27-331, limits assumed, biotin-labeled in the ELISA of Example 8) (assay: competition ELISA: plate coated with VEGF (8-109), 100 pM biotin-labeled Flt1(1-3), serial dilutions of the competing VEGF (Example 8)).
T3 construct: domain: domains 1 to 3; Genentech reagent; also called Flt(1-3); domains 1 to 3 of Flt-1
T3 sequence (P17948 27-331 limits assumed): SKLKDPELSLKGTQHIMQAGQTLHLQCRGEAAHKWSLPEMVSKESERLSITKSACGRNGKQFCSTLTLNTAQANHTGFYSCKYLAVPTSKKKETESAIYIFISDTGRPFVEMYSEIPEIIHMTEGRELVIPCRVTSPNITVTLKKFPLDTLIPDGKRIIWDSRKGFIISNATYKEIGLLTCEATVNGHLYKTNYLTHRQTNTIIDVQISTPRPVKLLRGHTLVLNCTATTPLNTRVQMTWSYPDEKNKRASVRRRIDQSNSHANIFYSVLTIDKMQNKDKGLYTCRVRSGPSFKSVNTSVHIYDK
Description: as §3

Going from B9 to B10, the “fold reduction in binding (IC50 variant / IC50 VEGF(1-109))” value falls from 29 fold to 1 fold.

For B11, the “fold reduction in binding (IC50 variant / IC50 VEGF(1-109))” value was 7 fold.
